Assay [1] concerns the target full-length SPARC (SPARC_C1) and the SPARC FS-EC domains (SPARC_C2). Briefly: fluorescence polarisation.
Assay [2] has as its target rat NLGN2(+A) extracellular domain (Val43-His612, with splice insert SSA) (rat) (UniProt Q62888). Description: SPR. (In general: In SPR one partner is held on a chip, and binding of the other changes the refractive index at the surface.)
The target of assay [3] is T1, rat NLGN2(+A) extracellular domain (Val43-His612, with splice insert SSA) (rat, UniProt Q62888-1 43-612). Briefly: SPR.
T1 sequence (Q62888 43-612): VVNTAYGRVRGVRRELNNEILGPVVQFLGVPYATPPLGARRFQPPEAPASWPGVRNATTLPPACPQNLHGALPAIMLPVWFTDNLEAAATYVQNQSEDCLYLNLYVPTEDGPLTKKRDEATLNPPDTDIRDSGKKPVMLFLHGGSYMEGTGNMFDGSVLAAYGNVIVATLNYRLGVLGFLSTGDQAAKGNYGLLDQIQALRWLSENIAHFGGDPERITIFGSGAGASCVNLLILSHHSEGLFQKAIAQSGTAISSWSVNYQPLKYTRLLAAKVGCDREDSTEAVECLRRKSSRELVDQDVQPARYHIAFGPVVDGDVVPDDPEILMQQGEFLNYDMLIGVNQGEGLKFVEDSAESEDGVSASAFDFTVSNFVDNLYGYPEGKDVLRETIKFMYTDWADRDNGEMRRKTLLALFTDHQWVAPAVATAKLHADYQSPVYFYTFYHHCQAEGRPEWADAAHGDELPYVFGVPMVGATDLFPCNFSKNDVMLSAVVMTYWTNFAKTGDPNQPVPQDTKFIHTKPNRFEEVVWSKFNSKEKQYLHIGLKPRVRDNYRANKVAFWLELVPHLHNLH
The target in assay [4] is T1, rat NLGN2(+A) extracellular domain …. Briefly: fluorescence polarisation. For orientation: In fluorescence polarisation assays a small probe gives low polarisation when free and higher when bound to something large.

From article PMC8254758 (Structure (London, England : 1993), 2021) come the findings set out here.

Numbering of substitutions follows the chain as printed. Numbers in names are those of the source.

For orientation: Kd means the concentration at which binding is half-saturated.

Sequence of rat NLGN2(+A) extracellular domain (Val43-His612, with splice insert SSA) (rat) (Q62888 43-612): as above

Molecule “rat NLGN2(+A) extracellular domain (Val43-His612, with splice insert SSA) (from UniProt Q62888-1 43-612) (domain or fragment)” showed an equilibrium dissociation constant (Kd) in assay [1] of 37 to 96 nM. In assay [2], “bovine neurexin 1α L1L6 (M1-S1339, without splice inserts) (domain or fragment)” had a Kd of 3.8 nM.

B1: hevin_C4 (L302-F664) (domain or fragment, human, UniProt Q14515 302-664, looked up)
chain: LEAISNHKETEEKTVSEALLMEPTDDGNTTPRNHGVDDDGDDDGDDGGTDGPRHSASDDYFIPSQAFLEAERAQSIAYHLKIEEQREKVHENENIGTTEPGEHQEAKKAENSSNEEETSSEGNMRVHAVDSCMSFQCKRGHICKADQQGKPHCVCQDPVTCPPTKPLDQVCGTDNQTYASSCHLFATKCRLEGTKKGHQLQLDYFGACKSIPTCTDFEVIQFPLRMRDWLKNILMQLYEANSEHAGYLNEKQRNKVKKIYLDEKRLLAGDHPIDLLLRDFKKNYHMYVYPVHWQFSELDQHPMDRVLTHSELAPLRASLVPMEHCITRFFEECDPNKDKHITLKEWGHCFGIKEEDIDENLLF
For the molecule B1, the binding result in assay [3] is recorded as “binds”.

B2: human MDGA1 Ig1-Ig2 (MDGA1_C8, Y22-T237) (domain or fragment, UniProt Q8NFP4-1 22-237, looked up)
chain: YAPAQAQIVHAGQACVVKEDNISERVYTIREGDTLMLQCLVTGHPRPQVRWTKTAGSASDKFQETSVFNETLRIERIARTQGGRYYCKAENGVGVPAIKSIRVDVQYLDEPMLTVHQTVSDVRGNFYQEKTVFLRCTVNSNPPARFIWKRGSDTLSHSQDNGVDIYEPLYTQGETKVLKLKNLRPQDYASYTCQVSVRNVCGIPDKAITFRLTNTT
For B2, the binding result in assay [4] is on record as “binds”.

B3: MDGA1_C8 Mut4 (MDGA1 Ig1-Ig2 R105A, Y107A, R123A, F154A, R156A, Y187A) (domain or fragment, human, UniProt Q8NFP4-1 22-237, looked up)
chain: B2 chain with R84A, Y86A, R102A, F133A, R135A, Y166A
B3: the binding result in assay [4] is given as “binds”.
